Data reported in patent US20240182575A1 (Ablynx, published 2024).

Assays:
[1] = biological target: T1, rhPDL2-Fc (fusion protein of the extracellular part of human PD-L2 and mouse Fc gamma 1, R&D Systems Cat … (human; mouse, UniProt Q9BQ51 20-220; P01868 98-324 = IgG part, limits assumed); assay: ELISA, coated PD-L2
T1 construct: extracellular domain;domain: Fc; bought; also called PD-L2 ectodomain
Description: In short, 5 μg/ml PD-L2 ectodomain (R&D Systems, Minneapolis, US, Cat #1224-PL) was immobilized on maxisorp microtiter plates (Nunc, Wiesbaden, Germany) and free binding sites were blocked using 4% Marvel in PBS. Next, 10 μl of periplasmic extract containing Nanobody of the different clones in 100 μl 2% Marvel PBST were allowed to bind to the immobilized antigen. […] Binding specificity was determined based on OD values compared to controls having received no Nanobody (low control).
After expression, the obtained Nanobodies were purified via the His-tag on Talon beads.

[2] = biological target: T1, rhPDL2-Fc (fusion protein of the …); assay: competition ELISA, coated PD-L2; blocked ligand PD-1-biotin
Description: In short, 2 μg/ml PD-L2 ectodomain (R&D Systems, Minneapolis, US, Cat #1224-PL) was immobilized on maxisorp microtiter plates (Nunc, Wiesbaden, Germany) and free binding sites were blocked using 4% Marvel in PBS. Next, 0.5 μg/ml of PD-1 was preincubated with a dilution series of purified Nanobody.

[3] = biological target: T2, rhB7H1-Fc (fusion protein of the extracellular part of human B7-H1 (PD-L1) and mouse Fc gamma 1, R&D Systems … (human; mouse, UniProt Q9NZQ7 19-238; P01868 98-324 = IgG part, limits assumed); assay: ELISA, coated B7-H1
T2 construct: extracellular domain;domain: Fc; bought; also called B7-H1 ectodomain

[4] = biological target: T3, HuCD86-MuIgG2a (fusion protein of the extracellular part of human CD86 and mouse Fc gamma 2a, Ancell Cat … (human; mouse, UniProt P42081 24-247; P01863 98-330 = IgG part); assay: competition ELISA, coated CD86-Ig; blocked ligand CD28-Ig
T3 construct: extracellular domain;domain: Fc; bought; also called B7-2

[5] = biological target: T2, rhB7H1-Fc (fusion protein of the …); assay: competition ELISA, coated B7-H1; blocked ligand PD-1-biotin
Description: Next, 0.5 μg/ml of PD-1 was preincubated with a dilution series of purified Nanobody.

[6] = biological target: T4, HuCTLA4-HuIgG1 (fusion protein of the extracellular part of human CD152 and human Fc gamma 1, CTLA4-Ig) (human, UniProt P16410 36-161); assay: SPR, Biacore T100, CTLA4-Ig amine-coupled
T4 construct: extracellular domain; also called CTLA4-hFc; CTLA4-Fc; not shown: human Fc gamma 1
Description: Affinity constants (Kd) of individual purified Nanobody clones were determined by surface plasmon resonance on a Biacore T100 instrument. […] Remaining reactive groups were inactivated using ethanolamine. […] Each sample was injected for 2 min at a flow rate of 45 μl/min to allow for binding to chip-bound antigen. Next, binding buffer without Nanobody was sent over the chip at the same flow rate to allow for dissociation of bound Nanobody. After 2 min, remaining bound analyte was removed by injecting regeneration solution (10 mM Glycine/HCl pH 1.5). Binding curves obtained at different concentrations of Nanobody were used to calculate KD values. For some clones, only a single undetermined concentrations of Nanobody was injected.

[7] = biological target: T5, cynomolgus monkey CTLA4 on stably transfected CHO-K1 cells (human CTLA4 cDNA with S13N, I17T and L105M) (human backbone with cynomolgus monkey …, UniProt P16410 36-223); assay: FACS, direct binding titration on cyno CTLA4 CHO cells (head prints IC50)
T5 chain: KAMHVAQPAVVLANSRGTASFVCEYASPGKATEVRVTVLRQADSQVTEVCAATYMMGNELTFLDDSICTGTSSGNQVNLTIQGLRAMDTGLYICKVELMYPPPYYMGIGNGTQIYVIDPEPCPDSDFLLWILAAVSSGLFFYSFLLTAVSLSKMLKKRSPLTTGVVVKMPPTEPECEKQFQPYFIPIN

[8] = biological target: T6, human CTLA4 (Y201 mutated to valine) on stably transfected CHO-K1 cells (human, UniProt P16410 36-223); assay: FACS, direct binding titration on human CTLA4 CHO cells (head prints IC50)
T6 construct: whole, on cells; the mutation of the intracellular position Y201 keeps the protein on the membrane; also called human CTLA4 overexpressing CHO cells; human CTLA4 transfectant
Description: Binding of putative CTLA4 reactive Nanobodies clones was detected using unlabeled anti-c-myc tag mouse monoclonal antibody 9E10, followed by a phycoerythrin conjugated F(ab′)2 derived from goat-anti-mouse IgG (human and bovine crossabsorbed), and read on a BD FACSarray instrument. Dead cells were excluded from the analysis by gating out TOPRO3 vital dye positive scoring cells. Binding of the Nanobodies to cells was evaluated in BD FACSarray control software as PE channel histograms.

[9] = biological target: T6, human CTLA4 (Y201 mutated to valine) on …; assay: FACS competition, human CTLA4 CHO cells; blocked ligand CD80-Fc
Source text: The potency of selected Nanobodies to inhibit the interaction of CTLA4 with CD80 was also ranked using FACS based screening method. […] This concentration was previously determined to be the minimal amount required to saturate all CD80 binding sites on both human and cyno CTLA4 expressing CHO cell clones in the absence of any CTLA4 interaction blocking proteins. […] Dead cells were stained by including TOPRO3 vital dye in the final resuspension buffer. All samples were read on a BD FACSarray instrument. Dead cells were excluded from the analysis by gating out TOPRO3 vital dye positive scoring cells.

[10] = biological target: T4, HuCTLA4-HuIgG1 (fusion protein of the …); assay: alphascreen; competitor biotinylated HuCD80-MuIgG2a
Source text: Individual clones were scored as putative CTLA4/CD80 interaction inhibiting if the presence of the periplasmic extract decreased the fluorescent signal of the acceptor beads.

[11] = biological target: T7, human CD28 on Jurkat cells (human, UniProt P10747 19-220); assay: FACS competition, Jurkat cells; blocked ligand CD80-Fc
T7 construct: whole, on cells; also called native form of the CD28 antigen; cell expressed CD28
Source text: The potency of cell-expressed CD28 binding Nanobodies to inhibit the interaction of CD28 with either CD80 or CD86 was also ranked using FACS based screening method. […] Dead cells were stained by including TOPRO3 vital dye in the final resuspension buffer. All samples were read on a BD FACSarray instrument. Dead cells were excluded from the analysis by gating out TOPRO3 vital dye positive scoring cells.

[12] = biological target: T8, HuCD28-HuIgG1 (fusion protein of the extracellular part of human CD28 and human Fc gamma 1, R&D Systems Cat … (human, UniProt P10747 19-152; P01857 100-330 = IgG part); assay: competition ELISA, CD28-hFc in solution; blocked ligand coated B7-1-muFc
T8 construct: extracellular domain;domain: Fc; bought; also called CD28-Ig; hCD28-Fc

B1: 103D3 (VHH)
VHH: EVQLVESGGGLVEPGGSLRLSCVASGFTFSSYDMSWVRQAPGKGLEWVSTINSGGGITYRGSVKGRFTISRDNAKNTLYLQMNSLKPEDTAVYYCENGGSSYRRGQGTQVTVSS
notes: Nanobody against PD-L2
B1 was tested, and the “EC50 (read off the curve)” value [1] was about 7 nM and the “IC50 (read off the curve)” value [2] was about 10 nM.

B2: 104E12 (VHH)
VHH: EVQLVESGGGLVQPGGSLRLSCAASGFTFDYYAIGWFRQAPGKAREGVSCISGGDNSTYYADSVKGRFTISRDNAKNTVYLQMNSLKPEDTAVYYCATGGWKYCSGYDPEYIYWGQGTQVTVSS
For B2, the “EC50 (read off the curve)” value [3] was about 10 nM.

B3: CD8086PMP2B4 (VHH)
VHH: EVQLVESGGGLVQAGGSLRLSCAASGSIFSIYTMGWYRQAPGEQRELVAAITSGGSTNYADSVKGRFTISRDNAKNTVYLQMNSLKPEDTAVYYCNAIAHEEGVYRWDFWGQGTQVTVSS
notes: not shown: C-terminal c-myc tag and His6 tag
B3: binds [4].

B4: 103F6 (VHH)
VHH: EVQLVESGGGLVQPGGSLRLSCAASGFTFSTYTMIWLRRAPGKGFEWVSTIDKDGNTNYVDSVKGRFAVSRDNTKNTLYLQMNSLKPEDTAMYYCTKHGSSARGQGTRVTVSS
notes: Nanobody against PD-L2
With B4 the “IC50 (read off the curve)” value [2] was about 7 nM.

B5: 103F10 (VHH)
VHH: EVQLVESGGGLVQAGGSLRLSCAASGRTFSSGTMGWFRRAPGKEREFVASIPWSGGRTYYADSVKDRFTISRDNAQNTVFLQMNSLKPEDTAVYYCAFKERSTGWDFASWGQGIQVTVSS
notes: Nanobody against PD-L2
B5 was tested, and the “EC50 (read off the curve)” value [1] was about 20 nM.

B6: 104D2 (VHH)
VHH: EVQLVESGGGLVQPGGSLRLSCAASGFTLDYYAIGWFRQAPGKEREWASSISSSDGSTYYADSVKGRFTISRDNAKNTVFLQMNSLKPEDTAVYSCAASQAPITIATMMKPFYDYWGQGTQVTVSS
In the case of B6, the “EC50 (read off the curve)” value [3] is reported as 5 to 6 nM and the “IC50 (read off the curve)” value [5] is reported as about 10 nM.

B7: 103E2 (VHH)
VHH: EVQLVESGGGLVQAGGSLRLSCAASGSTFSNYVSNYAMGWGRQAPGTQRELVASISNGDTTNYADSVKGRFTISRDNAKNTVYLQMNSLKPEDTAVYYCFEHQVAGLTWGQGTQVTVSS
notes: Nanobody against PD-L2
With B7 the “IC50 (read off the curve)” value [2] was about 10 nM.

B8: 4CTLAPMP02F2 (VHH)
VHH: EVQLMESGGGLVQTGGSLRLSCAASGRTFSNYTMGWFRQAPGKDREFVAAISRSGSLKAYADSVKGRFTPSRDNAKKMAYLQMNSLKPEDTAVYYCAAAPVPWGTRPSLFPYDSWGQGTQVTVSS
notes: short label tied to the entry by the clone code only; not shown: C-terminal c-myc tag and His6 tag
In the case of B8, the Kd [6] is reported as 0.638 nM, the koff [6] is reported as 0.00391 s⁻¹ and the kon [6] is reported as 6.13e+06 M⁻¹ s⁻¹. The IC50 [7] was 2.42 nM, the IC50 [8] was 2.56 nM and the “IC50 (read off the curve)” value [9] was about 10 nM.

B9: 4CTLAPMP02G2 (VHH)
VHH: EVQLVESRGGLVQTGGSLRLSCAASGRTFSNYTMGWFRQAPGKDREFVAAISRSGSLKSYADSVKGRFTISRDNAKKMAYLQMNSLKPEDTAVYYCAAAPVPWGTRPSFFTYDSWGQGTQVTVSS
notes: as for B8
With B9 the Kd [6] was 0.478 nM, the koff [6] was 0.00355 s⁻¹ and the kon [6] was 7.42e+06 M⁻¹ s⁻¹. For the same binder, the IC50 [7] was 2.08 nM, the IC50 [8] was 2.28 nM and the “IC50 (read off the curve)” value [9] was about 8 nM.

B10: 103E3 (VHH)
VHH: EVQLVESGGGLVQTGGSLRLSCAASGFTLDYYGIGWFRQAPGKEREGVSFISGSDGSTYYAESVKGRFTISRDKAKNTVYLQMNSLKPEDTAVYYCAADPWGPPSIATMTSYEYKHWGQGTQVTVSS
notes: Nanobody against PD-L2
B10: binds [1].

B11: 104F5 (VHH)
VHH: EVQLVESGGGLVQPGGSLRLSCAASGFTLDYYAKCWFRQAPGKEREWVSCISSSDGSTYYADSVKGRFTISRDNAKNTVYLQMNSLKPEDTAVYFCAARHGGPLTVEYFFDYWGQGTQVTVSS
For B11, the “EC50 (read off the curve)” value [3] was about 3 nM and the “IC50 (read off the curve)” value [5] was about 9 nM.

B12: 4CTLAPMP2G9 (VHH)
VHH: EVQLVKSGGQLVQAGGSLRLSCAATGRTYNSYPLGWFRQAPGKEREFVAAISASGTLRAYADSVKGRFTISRDSAKNTVYLQMNNLKPEDTAVYYCARARSVGWRASHHLSDYDNWGQGTQVTVSS
notes: as for B8
B12 gave a Kd [6] of 1.69 nM, a koff [6] of 0.00732 s⁻¹ and a kon [6] of 4.35e+06 M⁻¹ s⁻¹. The IC50 [10] was 2.01 nM, the IC50 [7] was 2.66 nM and the IC50 [8] was 2.47 nM.

B13: 65B2 (VHH)
VHH: EVQLVESGGGLVQAGGSLRLSCATSGRTFSSDVMGWFRQAPGKEREFVAAINRSGHSTSYTGSVKGRFAISRDNTKNTVYLQMNSLKPEDTAVYYCALRLWSDYLAQKSGEYNYWGQGTQVTVSS
notes: Nanobody against CD28
For B13, the “IC50 (read off the curve)” value [11] was about 200 ng/well and the “IC50 (read off the curve)” value [12] was about 200 nM.

B14: 104B10 (VHH)
VHH: EVQLVESGGGLVQAGGSLRLSCAASGSTFSQYDVGWYRQAPGKQRELVAFSSSGGRTIYPDSVKGRFTFSRDNTKNTVYLQMTSLKPEDTAVYYCKIDWYLNSYWGQGTQVTVSS
In the case of B14, the “IC50 (read off the curve)” value [5] is reported as about 20 nM.
